Ten molecules from patent publication US20190144558A1 (MAGENTA THERAPEUTICS, published 2019) can be followed below.

Substitutions are numbered along the chain they refer to.

The Kd is the constant that tells how readily two partners part at equilibrium. Low values mean higher affinity, high ones lower affinity. Broadly, the koff is the first-order rate constant of dissociation. Higher therefore signals fast dissociation. The kon is a measure of how fast the partners come together. Low readings indicate slow association, high ones fast association.

B1: Antibody 56 (antibody, human IgG1, kappa, V domains shown)
VH: QVQLVQSGAEVKKPGSSVKVSCKASGGTFSLYAISWVRQAPGQGLEWMGGIIPAFGTANYAQKFQGRVTITADESTSTAYMELSSLRSEDTAVYYCARGGLDTDEFDLWGRGTLVTVSS
VL: DIQMTQSPSSLSASVGDRVTITCRASQSINSYLNWYQQKPGKAPKLLIYAASSLQSGVPSRFSGSGSGTDFTLTISSLQPEDFATYYCQQGVSDITFGGGTKVEIKR
notes: also called Ab56; HC-56/LC-56
B2: Antibody 57 (antibody, human IgG1, kappa, V domains shown)
VH: B1 VH with A54H, T57L
VL: B1 VL
notes: also called Ab57; HC-57/LC-57
B3: Antibody 55 (antibody, human IgG1, kappa, V domains shown)
VH: B1 VH with S30R, L31I, A54D, T57V
VL: B1 VL
notes: also called Ab55; HC-55/LC-55
B4: Antibody 54 (antibody, human IgG1, kappa, V domains shown)
VH: B1 VH with L31S, A54I
VL: B1 VL
notes: also called Ab54; HC-54/LC-54
B5: Antibody 58 (antibody, human IgG1, kappa, V domains shown)
VH: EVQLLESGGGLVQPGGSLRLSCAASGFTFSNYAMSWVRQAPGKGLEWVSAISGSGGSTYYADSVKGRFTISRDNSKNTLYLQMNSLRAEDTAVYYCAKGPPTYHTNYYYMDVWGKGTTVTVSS
VL: DIQMTQSPSSVSASVGDRVTITCRASQGISSWLAWYQQKPGKAPKLLIYAASSLQSGVPSRFSGSGSGTDFTLTISSLQPEDFATYYCQQTNSFPYTFGGGTKVEIKR
notes: also called Ab58; HC-58/LC-58
B6: Antibody 61 (antibody, human IgG1, kappa, V domains shown)
VH: EVQLLESGGGLVQPGGSLRLSCAASGFTFSSYVMIWVRQAPGKGLEWVSSISGDSVTTYYADSVKGRFTISRDNSKNTLYLQMNSLRAEDTAVYYCAKGPPTYHTNYYYMDVWGKGTTVTVSS
VL: B5 VL
notes: also called Ab61; HC-61/LC-61
B7: Antibody 67 (antibody, human IgG1, kappa, V domains shown)
VH: EVQLVESGGGLVQPGGSLRLSCAASGFTFSDADMDWVRQAPGKGLEWVGRTRNKAGSYTTEYAASVKGRFTISRDDSKNSLYLQMNSLKTEDTAVYYCAREPKYWIDFDLWGRGTLVTVSS
VL: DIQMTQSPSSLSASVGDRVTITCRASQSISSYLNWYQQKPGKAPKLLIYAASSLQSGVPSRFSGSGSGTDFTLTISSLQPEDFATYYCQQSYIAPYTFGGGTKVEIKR
notes: also called Ab67; HC-67/LC-67
B8: Antibody 68 (antibody, human IgG1, kappa, V domains shown)
VH: B7 VH with G16R, A23T, A32H, D35N, K54A
VL: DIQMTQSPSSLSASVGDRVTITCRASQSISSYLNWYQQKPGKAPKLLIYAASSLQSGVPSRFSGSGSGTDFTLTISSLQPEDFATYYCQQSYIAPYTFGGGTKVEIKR
notes: also called Ab68; HC-68/LC-68
B9: Antibody 66 (antibody, human IgG1, kappa, V domains shown)
VH: B7 VH with A32H, D33Y, G56S
VL: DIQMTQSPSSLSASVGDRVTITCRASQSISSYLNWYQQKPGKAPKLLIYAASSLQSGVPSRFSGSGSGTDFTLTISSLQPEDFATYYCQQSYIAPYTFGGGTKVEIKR
notes: also called Ab66; HC-66/LC-66
B10: Antibody 69 (antibody, human IgG1, kappa, V domains shown)
VH: B7 VH with S30V, A32H, A55L
VL: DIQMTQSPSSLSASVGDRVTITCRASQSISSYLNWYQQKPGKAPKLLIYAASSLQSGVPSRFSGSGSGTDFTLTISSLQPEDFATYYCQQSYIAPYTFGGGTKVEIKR
notes: also called Ab69; HC-69/LC-69

For the test, the target named is T1, rhesus CD117 ectodomain (rhesus, UniProt F6V858 26-524).
T1 construct: extracellular domain
In words: BLI (Octet Red96), IgG on anti-human Fc sensors, rhesus CD117 ectodomain at 33.3 and 11 nM, 1:1 fit.
Experimental: Antibody binding studies were performed at 25 degrees celsius in 1×PBS supplemented with 0.1% w/v bovine serum albumin with a Pall ForteBio Octet Red96 using biolayer interferometry (BLI).
As to B1, binding was put at a Kd of 0.28 nM, the koff amounted to 8.57e-05 s⁻¹ and the on-rate (kon) was 306000 M⁻¹ s⁻¹.

Consider B2, for which the affinity, expressed as Kd, was 0.288 nM; the koff came to 8.57e-05 s⁻¹; the on-rate (kon) was determined as 298000 M⁻¹ s⁻¹.

The molecule B3 showed a Kd of 0.284 nM, a koff of 8.96e-05 s⁻¹ and an association rate constant (kon) of 315000 M⁻¹ s⁻¹.

Consider B4, for which binding was characterised by a dissociation constant (Kd) of 2.6 nM, the koff turned out to be 0.000793 s⁻¹ and the kon was determined as 304000 M⁻¹ s⁻¹.

B5 displayed an equilibrium dissociation constant (Kd) of 30.3 nM, an off-rate (koff) of 0.00855 s⁻¹ and a kon of 282000 M⁻¹ s⁻¹.

Turning to B6, the Kd was found to be 20.5 nM, the off-rate (koff) was determined as 0.00472 s⁻¹ and the kon came out at 230000 M⁻¹ s⁻¹.

Molecule B7 registered a Kd of 0.376 nM, a koff of 8.57e-05 s⁻¹ and a kon of 228000 M⁻¹ s⁻¹.

In the case of B8, binding was put at a Kd of 0.374 nM, the off-rate (koff) is 8.98e-05 s⁻¹ and the association rate constant (kon) was 240000 M⁻¹ s⁻¹.

As to B9, the equilibrium dissociation constant (Kd) is 66 nM, the off-rate (koff) was found to be 0.0258 s⁻¹ and the kon amounted to 391000 M⁻¹ s⁻¹.

B10 displayed a dissociation constant (Kd) of 0.528 nM, a koff of 0.000126 s⁻¹ and a kon of 240000 M⁻¹ s⁻¹.
